Experimental data reported in patent US20170137855A1, “RECOMBINANT CELLS AND METHODS FOR NONPHOSPHORYLATIVE METABOLISM” (REGENTS OF THE UNIVERSITY OF MINNESOTA, priority 2015, published 2017).
Substitutions are numbered along the chain they refer to. In names and notes the source's numbering stands.

How the values were obtained:
[1] = substrate: O=CCCC(=O)C(=O)O; experiment: 2-ketoacid decarboxylase Kivd wild type, coupled assay, NADPH oxidation at 340 nm; assay type: biochemical; conditions: other: coupled assay, substrate from 0.1-10 mM L-arabonate, 1 mM NADPH, 0.5 mM ThDP, pH 7.5, 10 nM Kivd, 30.0 °C
Experimental: (§1) 2-Ketoacid decarboxylase (Kivd) and alcohol dehydrogenase (YqhD): The decarboxylase activity of Kivd was measured by a coupled enzymatic assay with AraC, AraD, and YqhD (Zhang et al., 2011. ChemSusChem 4:1068-1070). Excess AraC, AraD, and YqhD was used and the oxidation of NADPH was monitored at 340 nm. The assay mixture contained 1 mM NADPH, 1 μM AraC, 1 μM AraD, and 100 nM YqhD and 0.1-10 mM L-arabonate in assay buffer (100 mM Tris-HCl buffer, pH 7.5, 5 mM MgSO4, 0.5 mM ThDP) with a total volume of 0.1 ml. The mixture was incubated at 30° C. for one hour and 10 nM Kivd was added. The dehydrogenase activity of YqhD was assayed according to NADPH initial consumption rates in a coupled assay. The assay mixture contained 1 mM NADPH, 100 nM Kivd, 1 μM AraC, 1 μM AraD, and 0.1-10 mM L-arabonate in 100 μl of 100 mM Tris-HCl buffer (pH 7.5) with 5 mM MgSO4. The mixture was first incubated at 30° C. for one hour. Afterwards, 10 nM YqhD was added and the NADPH consumption rate was monitored.

[2] = substrate: O=C(O)C(=O)C[C@H](O)CO; experiment: as above; assay type: biochemical; conditions: other: wild type; BTO substrate; pH 7.5; 30.0 °C
Experimental: as §1

[3] = substrate: O=CCCC(=O)C(=O)O; experiment: 2-ketoacid decarboxylase Kivd V461I mutant, coupled assay, NADPH oxidation at 340 nm; assay type: biochemical, Lactococcus lactis; conditions: other: V461I mutant, coupled assay, pH 7.5, 30.0 °C
Experimental: as §1

[4] = substrate: O=C(O)C(=O)C[C@H](O)CO; experiment: as above; assay type: biochemical, Lactococcus lactis; conditions: other: V461I mutant; BTO substrate; pH 7.5; 30.0 °C
Experimental: as §1

B1: Lactococcus lactis 2-ketoacid decarboxylase Kivd, wild type (Lactococcus lactis subsp. lactis) (protein)
chain: MYTVGDYLLDRLHELGIEEIFGVPGDYNLQFLDQIISHKDMKWVGNANELNASYMADGYARTKKAAAFLTTFGVGELSAVNGLAGSYAENLPVVEIVGSPTSKVQNEGKFVHHTLADGDFKHFMKMHEPVTAARTLLTAENATVEIDRVLSALLKERKPVYINLPVDVAAAKAEKPSLPLKKENSTSNTSDQEILNKIQESLKNAKKPIVITGHEIISFGLEKTVTQFISKTKLPITTLNFGKSSVDEALPSFLGIYNGTLSEPNLKEFVESADFILMLGVKLTDSSTGAFTHHLNENKMISLNIDEGKIFNERIQNFDFESLISSLLDLSEIEYKGKYIDKKQEDFVPSNALLSQDRLWQAVENLTQSNETIVAEQGTSFFGASSIFLKSKSHFIGQPLWGSIGYTFPAALGSQIADKESRHLLFIGDGSLQLTVQELGLAIREKINPICFIINNDGYTVEREIHGPNQSYNDIPMWNYSKLPESFGATEDRVVSKIVRTENEFVSVMKEAQADPNRMYWIELILAKEGAPKVLKKMGKLFAEQNKS
notes: also expressed from pBDO-5 in E. coli fermentation (A5)
[1]
  Km: 4.8 mM
  kcat: 4.8 s⁻¹
[2]
  kcat/Km: 7700 M⁻¹ s⁻¹

B2: Lactococcus lactis 2-ketoacid decarboxylase Kivd variant V461I (Lactococcus lactis subsp. lactis; V461I) (protein)
chain: B1 chain with V461I
notes: coupled with AraC/AraD/YqhD
[3]
  kcat/Km: 2500 M⁻¹ s⁻¹
[4]
  kcat/Km: 500 M⁻¹ s⁻¹
